Target: SARS-CoV-2 S1蛋白 (ACRO Biosystems) (SARS-CoV-2) (UniProt P0DTC2)
Assay: BLI, biotinylated SARS-CoV-2 S1 on SA sensor, 1:1 fit

Substance: 针对SARS-CoV和SARS-CoV-2S1的人源抗体CR3022 (antibody)
- Kd: 0.0866 nM
- koff: 1.9e-05 s⁻¹
- kon: 220000 M⁻¹ s⁻¹
